Measurements taken from paper PMC12636033, “Chemical Engineering of Transcription Factors Uncovered Cell-Permeable μMax Modulators”.

Target: WT Max (Homo sapiens, UniProt P61244-2 13-93, M65Nle, norleucine written as M; other non-natural residues written as X)
Test: PBM; 50-200 nM protein; PBS, 2% milk, BSA, salmon testes DNA, 0.02% Triton X-100
Conditions: chain copies: 2; label: surface-attached array probe

WT Max, sequence (P61244 other isoform, or with tags, fused parts or gaps M65Nle): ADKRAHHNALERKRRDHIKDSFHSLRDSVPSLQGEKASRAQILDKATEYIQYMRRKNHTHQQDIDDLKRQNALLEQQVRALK

Binder | binding signal
dBr_Jan07_22649 (dsDNA) DNA 1: TTACATACCAGGACTTATCGCATAGGTAGGCTGAGAGTCTGTGTTCCGTTGTCCGTGCTG DNA 2: CAGCACGGACAACGGAACACAGACTCTCAGCCTACCTATGCGATAAGTCCTGGTATGTAA | -0.77 robust z of log adjusted intensity (ours), mean of two arrays
dBr_Jan07_40185 (dsDNA) DNA 1: AGAATCAAGGTGAGCGAGCAAGGCTTAAAATCCCGCGTCTGTGTTCCGTTGTCCGTGCTG DNA 2: CAGCACGGACAACGGAACACAGACGCGGGATTTTAAGCCTTGCTCGCTCACCTTGATTCT | -0.61 robust z of log adjusted intensity (ours), mean of two arrays
dBr_Jan07_28571 (dsDNA) DNA 1: TCGTTCTTATTTTGGCACGTGCACCCGCTTTGCTCAGTCTGTGTTCCGTTGTCCGTGCTG DNA 2: CAGCACGGACAACGGAACACAGACTGAGCAAAGCGGGTGCACGTGCCAAAATAAGAACGA | 5.15 robust z of log adjusted intensity (ours), mean of two arrays
dBr_Jan07_34791 (dsDNA) DNA 1: GACTTGCCTACTACGCCAGAATTAGCTAGTTGGGTAGTCTGTGTTCCGTTGTCCGTGCTG DNA 2: CAGCACGGACAACGGAACACAGACTACCCAACTAGCTAATTCTGGCGTAGTAGGCAAGTC | -0.49 robust z of log adjusted intensity (ours), mean of two arrays
dBr_Jan07_00062 (dsDNA) DNA 1: TGGTGACCTGAGAGGCCGGTTGCTTCAGCCTACAACGTCTGTGTTCCGTTGTCCGTGCTG DNA 2: CAGCACGGACAACGGAACACAGACGTTGTAGGCTGAAGCAACCGGCCTCTCAGGTCACCA | -0.8 robust z of log adjusted intensity (ours), mean of two arrays
dBr_Jan07_21945 (dsDNA) DNA 1: GCAGGGGTGTAGGACAACTCGGCGTCAGTGGGTAGTGTCTGTGTTCCGTTGTCCGTGCTG DNA 2: CAGCACGGACAACGGAACACAGACACTACCCACTGACGCCGAGTTGTCCTACACCCCTGC | -0.45 robust z of log adjusted intensity (ours), mean of two arrays
dBr_Jan07_03085 (dsDNA) DNA 1: TGTACGGGAGACCTTGCGGCGCCTACGAGCAACAACGTCTGTGTTCCGTTGTCCGTGCTG DNA 2: CAGCACGGACAACGGAACACAGACGTTGTTGCTCGTAGGCGCCGCAAGGTCTCCCGTACA | -0.59 robust z of log adjusted intensity (ours), mean of two arrays
dBr_Jan07_31951 (dsDNA) DNA 1: CATGAGAATCGGCCCGGGTTACGTTCGCGGTACAATGTCTGTGTTCCGTTGTCCGTGCTG DNA 2: CAGCACGGACAACGGAACACAGACATTGTACCGCGAACGTAACCCGGGCCGATTCTCATG | -0.54 robust z of log adjusted intensity (ours), mean of two arrays
dBr_Jan07_30748 (dsDNA) DNA 1: CCGCAAGGAGCGCACTAGCATCTCCTCTCTTGGGCCGTCTGTGTTCCGTTGTCCGTGCTG DNA 2: CAGCACGGACAACGGAACACAGACGGCCCAAGAGAGGAGATGCTAGTGCGCTCCTTGCGG | -0.64 robust z of log adjusted intensity (ours), mean of two arrays
dBr_Jan07_00680 (dsDNA) DNA 1: ACACCAGCGCGTCAGGAGTTGTGTGAACCCACACCCGTCTGTGTTCCGTTGTCCGTGCTG DNA 2: CAGCACGGACAACGGAACACAGACGGGTGTGGGTTCACACAACTCCTGACGCGCTGGTGT | -0.81 robust z of log adjusted intensity (ours), mean of two arrays
dBr_Jan07_28323 (dsDNA) DNA 1: GGCTCAAGACAGATTGCAGCTTTGACAACCGAATTCGTCTGTGTTCCGTTGTCCGTGCTG DNA 2: CAGCACGGACAACGGAACACAGACGAATTCGGTTGTCAAAGCTGCAATCTGTCTTGAGCC | -0.41 robust z of log adjusted intensity (ours), mean of two arrays
dBr_Jan07_23776 (dsDNA) DNA 1: CAGCCGCGGCGCCTCTAGCAATCAGGAGCGTCGGTAGTCTGTGTTCCGTTGTCCGTGCTG DNA 2: CAGCACGGACAACGGAACACAGACTACCGACGCTCCTGATTGCTAGAGGCGCCGCGGCTG | -0.83 robust z of log adjusted intensity (ours), mean of two arrays
dBr_Jan07_40232 (dsDNA) DNA 1: TCGCGGAGACACCGCACTACGAGTGGCGAGAAGACCGTCTGTGTTCCGTTGTCCGTGCTG DNA 2: CAGCACGGACAACGGAACACAGACGGTCTTCTCGCCACTCGTAGTGCGGTGTCTCCGCGA | -0.86 robust z of log adjusted intensity (ours), mean of two arrays
dBr_Jan07_13143 (dsDNA) DNA 1: AGCTGTTGGTGCATCCTATGTCGAAGACTGGCGGCGGTCTGTGTTCCGTTGTCCGTGCTG DNA 2: CAGCACGGACAACGGAACACAGACCGCCGCCAGTCTTCGACATAGGATGCACCAACAGCT | -0.67 robust z of log adjusted intensity (ours), mean of two arrays
dBr_Jan07_33770 (dsDNA) DNA 1: GCGACCCTTCCACGTGCGTGTGTTAATGAGCGCATTGTCTGTGTTCCGTTGTCCGTGCTG DNA 2: CAGCACGGACAACGGAACACAGACAATGCGCTCATTAACACACGCACGTGGAAGGGTCGC | 4.84 robust z of log adjusted intensity (ours), mean of two arrays
dBr_Jan07_36343 (dsDNA) DNA 1: ATCGGTTAAAGTAACTATATTGGGCTTATCGGACCAGTCTGTGTTCCGTTGTCCGTGCTG DNA 2: CAGCACGGACAACGGAACACAGACTGGTCCGATAAGCCCAATATAGTTACTTTAACCGAT | -0.56 robust z of log adjusted intensity (ours), mean of two arrays
dBr_Jan07_11873 (dsDNA) DNA 1: CCAGAGTTCGTAGGCAAAAACCCGCGACGGTATGCCGTCTGTGTTCCGTTGTCCGTGCTG DNA 2: CAGCACGGACAACGGAACACAGACGGCATACCGTCGCGGGTTTTTGCCTACGAACTCTGG | -0.41 robust z of log adjusted intensity (ours), mean of two arrays
dBr_Jan07_08921 (dsDNA) DNA 1: CAGACAAAGTCACTGGGCGAGCATGAACCGTTTGCCGTCTGTGTTCCGTTGTCCGTGCTG DNA 2: CAGCACGGACAACGGAACACAGACGGCAAACGGTTCATGCTCGCCCAGTGACTTTGTCTG | -0.81 robust z of log adjusted intensity (ours), mean of two arrays
dBr_Jan07_14635 (dsDNA) DNA 1: CCTAGAATTCCAACATGACTGTCAACTTGGGAATCTGTCTGTGTTCCGTTGTCCGTGCTG DNA 2: CAGCACGGACAACGGAACACAGACAGATTCCCAAGTTGACAGTCATGTTGGAATTCTAGG | -0.81 robust z of log adjusted intensity (ours), mean of two arrays
dBr_Jan07_22655 (dsDNA) DNA 1: GCCCACCCACCGAAATCGTCAATAGGCCTCACAGAAGTCTGTGTTCCGTTGTCCGTGCTG DNA 2: CAGCACGGACAACGGAACACAGACTTCTGTGAGGCCTATTGACGATTTCGGTGGGTGGGC | -0.54 robust z of log adjusted intensity (ours), mean of two arrays
dBr_Jan07_18521 (dsDNA) DNA 1: ACCAATTAGAACGTATCTATGGAGCTTGCCCGATCGGTCTGTGTTCCGTTGTCCGTGCTG DNA 2: CAGCACGGACAACGGAACACAGACCGATCGGGCAAGCTCCATAGATACGTTCTAATTGGT | -0.67 robust z of log adjusted intensity (ours), mean of two arrays
dBr_Jan07_07252 (dsDNA) DNA 1: ATCCTGCCGCTTTCAATCGCCGGACAGCGATCGACAGTCTGTGTTCCGTTGTCCGTGCTG DNA 2: CAGCACGGACAACGGAACACAGACTGTCGATCGCTGTCCGGCGATTGAAAGCGGCAGGAT | -0.55 robust z of log adjusted intensity (ours), mean of two arrays
dBr_Jan07_18594 (dsDNA) DNA 1: CCAACATCTAAGACCCTGGTAGGGCCTTTCCGACCCGTCTGTGTTCCGTTGTCCGTGCTG DNA 2: CAGCACGGACAACGGAACACAGACGGGTCGGAAAGGCCCTACCAGGGTCTTAGATGTTGG | -0.86 robust z of log adjusted intensity (ours), mean of two arrays
dBr_Jan07_30609 (dsDNA) DNA 1: CGGAAGTCAGATAAAAGGTGGTATCGCGGCTTTAAAGTCTGTGTTCCGTTGTCCGTGCTG DNA 2: CAGCACGGACAACGGAACACAGACTTTAAAGCCGCGATACCACCTTTTATCTGACTTCCG | -0.46 robust z of log adjusted intensity (ours), mean of two arrays
